According to US20250382588A1, “CHIMERIC AAV AND USES THEREOF” (priority 2023, published 2025):

B1: G88P7: 896-bp derivative of the G88P2 promoter, SEQ ID NO: 61 (nucleic acid, listed as Homo sapiens)
DNA: ATGCCAAGCGTGGAAAGGCTGTCTTTTCCCTGGATGATGTATAACTAAGCAGGAGAGAGCTTCGAGTGGGTTCACCACATCAGCCACCACTCCTGCTTCTGAGCACAGGGTGCTCTCCTCTTGAGCTCAGCTTCTGCTTTTGCAGCCAAGCATTCTTGCTGCTGCTGCCTGCCTGCCCACCCGCCTGGGCTTGCAGCCCGCCACTTTACTTTCTCCAGCCCTGATACCAGCTGAGAAGTCTCCCTGCAGCTGCTAGTTCCTGCCCAGGACCATGTGTGTGGATGCTGCTTGGGAGAAGCGGGCACTTGCTCCTGGCACTGATCCCAGCTGAGTTTCTCCTGTTGATTTCTGGACCACTGATGCTGTTGCTGAGGAGGTATTTCCCGGCATCCCTCCCCCTGAGACACCGGCTAAGGACCAGCCTAAACGCAAGGTAACCTTCACCTCTTTCCCATGGGATTTTCCCCAGCTGGGATATCTCTGCTTTCTCCTGGAACTAGGTCCTCCAGCTGGCAACATATCTCTCTCTCTCTCTCTCTCTCTCTCTCTCTCTCTCTCTCTGTGTGTGTGTGTGTGTGTTGGGGGAGAAGAGGAGACTGTTTTAGGTATTGCTCTGTCCTAGGGCTTCCCCGATACCTGCTGAATCCAATGCAAAGTGGCCTTTCCCCTGGCTCTGGAGACATTTCCGAGGCAGGCACCTGTCATCTGCCACCCCCGTCCTCCTCCTCGAGCTCCCTTTCTCCCCCTCCCCCAGCCCATTATTCTGCTTCAGCCTTTTGTGTCAGTGGCAGAGGGCTGAAGGGATGTCTTTGCCCTTCTGGCAGGCAGGACAGTGTCAGGATGGACCGCGCTGCCAGAAGCCGACGCTAGCGAGGGAGGTGTGAAGAGTTGGCCAG
B2: G88P3: 1395-bp derivative of the G88P2 promoter, SEQ ID NO: 60 (nucleic acid, listed as Homo sapiens)
DNA: TCTAGATGTACCACTGACATCTGCTTTAAATCTTTTGCCCATTTCATTTTTACCCTCTAACCATTTCATTACTAAAACACAAAACAAACTCCGGAAAGGAGTTTGTTGATGAGAAAACACTGAAAGTACGATTTAAATTGAGGAATGGAGATTTTCTGTGGATAATTGTCTATGTTCCACTTTACCAAAGAAAAATGAATTTCAAGTAGTGCATAAAGTAATTCTCGTTAAAAAATGTGGGAATAAAGAGATCAGTCCTGGGTACTGGGAATATATTTATCTCACAGAAAAATCTTGCCCACAAAATGCATCAGACTGAGATGAAATACTCTAGGGTATATTAAATTTTATTCTAATATTGAAGGGAGGGAAAAAAAGGACGGAAAGAAAAATGAAACAGGATGAAAAATAAGGTGATTGGGAGAGAGAAAAGACAGAGAAACTTGTTAACGACAGGACTTTCTGAGCAAGATATTTTTCTTCCTTTTACAAGTTGGAAGCTATTGAATAATTCATGCCAAGCGTGGAAAGGCTGTCTTTTCCCTGGATGATGTATAACTAAGCAGGAGAGAGCTTCGAGTGGGTTCACCACATCAGCCACCACTCCTGCTTCTGAGCACAGGGTGCTCTCCTCTTGAGCTCAGCTTCTGCTTTTGCAGCCAAGCATTCTTGCTGCTGCTGCCTGCCTGCCCACCCGCCTGGGCTTGCAGCCCGCCACTTTACTTTCTCCAGCCCTGATACCAGCTGAGAAGTCTCCCTGCAGCTGCTAGTTCCTGCCCAGGACCATGTGTGTGGATGCTGCTTGGGAGAAGCGGGCACTTGCTCCTGGCACTGATCCCAGCTGAGTTTCTCCTGTTGATTTCTGGACCACTGATGCTGTTGCTGAGGAGGTATTTCCCGGCATCCCTCCCCCTGAGACACCGGCTAAGGACCAGCCTAAACGCAAGGTAACCTTCACCTCTTTCCCATGGGATTTTCCCCAGCTGGGATATCTCTGCTTTCTCCTGGAACTAGGTCCTCCAGCTGGCAACATATCTCTCTCTCTCTCTCTCTCTCTCTCTCTCTCTCTCTGTGTGTGTGTGTGTGTGTTGGGGGAGAAGAGGAGACTGTTTTAGGTATTGCTCTGTCCTAGGGCTTCCCCGATACCTGCTGAATCCAATGCAAAGTGGCCTTTCCCCTGGCTCTGGAGACATTTCCGAGGCAGGCACCTGTCATTTGCCACCCCCGTCCTCCTCCTCGAGCTCCCTTTCTCCCCCTCCCCCAGCCCATTATTCTGCTTCAGCCTTTTGTGTCAGTGGCAGAGGGCTGAAGGGATGTCTTTGCCCTTCTGGCAGGCAGGACAGTGTCAGGATGGACCGCGCTGCCAGAAGCCGACGCTAGCGAGGGAGGTGTGAA

Assays:
substantia nigra (SN) = assay: Promoter activity driving EYFP reporter expression after AAV injection into the SNr: substantia nigra; type: in vivo, mice; conditions: numbers of YFP-expressing neurons per animal
From the text: (§1) Brain profiles of two epigenetic marks for enhancers and promoters, monomethylation of histone H3 lysine 4 (H3K4me1) and acetylation of histone H3 lysine 27 (H3K27ac) were checked and approximately 2 kilobase-long sequences around the transcriptional start site (TSS) that have high levels of H3K4me1 and/or H3K27ac were identified in mouse brain. Homologous sequences at equivalent positions of the human genome were then cloned onto an AAV backbone, and the activity of the homologous sequences in directing reporter expression was tested in mice after injections of AAVs into the SNr (FIG. 3A-C, TABLE 3).
Region-selective promoter identification was based on the Allen Brain Atlas in situ hybridization (ISH) data (mouse.brain-map.org/). Genes highly expressed in the striatum but not in other parts of the basal ganglia were first selected as candidates. H3K4me1 and H3K27ac are known epigenetic marks for active promoters and enhancers. Thus, we identified regions with high levels of these two chromatin modification marks in mouse brain as candidate regions based on the ENCODE annotation data on the UCSC Genome Browser (genome.ucsc.edu/). To further extend the promoters' potential application in primates, the sequences of interest were PCR-amplified from human genomic DNA. Based on the above strategies, GPR88 was selected as a candidate gene. The nucleotide sequence upstream of the start codon with high H3K4me1 and H3K27ac levels was selected as the candidate promoter sequence. G88P2 (2259 bp) was cloned with the following primers: 5′-[…]-3′ (SEQ ID NO: 36), 5′-[…]-3′ (SEQ ID NO: 58). G88P3 (1395 bp) and G88P7 (896 bp) were further shortened by subcloning. […]
Images were acquired using a confocal microscope (Carl Zeiss, LSM880) and an Axiolmager.Z1 microscope with apotome (Carl Zeiss). […] Every sixth section was analyzed, and numbers of EYFP+ cells were multiplied by six to acquire the approximate total number and mean number of cells per animal. Images were processed using ImageJ (NIH, USA), and final quantifications were independently performed manually by two blinded experimenters.

[1] = tested on: MSNs in the striatum (STR); assay: Promoter activity driving EYFP reporter expression after AAV injection into the SNr: striatum; type: in vivo, mice; conditions: for labeled MSNs, reporter expression driven by promoter (FIG. 4B): mean±SEM, n=3 mice, AAV8R12 capsid; for Activity Level STR: numbers of YFP-expressing neurons per animal
From the text: as §1
G88P2 (2259 bp) was cloned with the following primers: 5′-[…] (SEQ ID NO.: 36) and 3-[…] (SEQ ID NO.: 37). To increase the payload of AAV genome, the G88P2 promoter was shorted using restriction enzymes, and two derivatives, G88P3 and G88P7, were made which were 1395-bp and 896-bp long, respectively (FIG. 3A-3C). Comparative efficiency in labeling MSNs for the two shortened promoters was observed. For mice that received viral injections into the SNr, viruses expressing EYFP driven by G88P3 and G88P7 promoters labeled 3.7±0.66×104 and 3.95±0.73×104 MSNs per mouse, respectively, compared to 1.61±0.16×104 labeled MSNs by hSyn promoter (FIG. 4B).
Region-selective promoter identification was based on the Allen Brain Atlas in situ hybridization (ISH) data (mouse.brain-map.org/). Genes highly expressed in the striatum but not in other parts of the basal ganglia were first selected as candidates. H3K4me1 and H3K27ac are known epigenetic marks for active promoters and enhancers. Thus, we identified regions with high levels of these two chromatin modification marks in mouse brain as candidate regions based on the ENCODE annotation data on the UCSC Genome Browser (genome.ucsc.edu/). To further extend the promoters' potential application in primates, the sequences of interest were PCR-amplified from human genomic DNA. Based on the above strategies, GPR88 was selected as a candidate gene. The nucleotide sequence upstream of the start codon with high H3K4me1 and H3K27ac levels was selected as the candidate promoter sequence. G88P2 (2259 bp) was cloned with the following primers: 5′-[…]-3′ (SEQ ID NO: 36), 5′-[…]-3′ (SEQ ID NO: 58). G88P3 (1395 bp) and G88P7 (896 bp) were further shortened by subcloning.
Promoters were subcloned into a pAAV-hSyn-EYFP vector derived from pAAV-hSyn-EGFP (Addgene, 50465) to replace the hSyn promoter by using appropriate restriction enzyme combinations. To generate pAAV-G88P7-DIO-tdTomato, a DIO-tdTomato cassette was subcloned into pAAV-G88P7-EYFP to replace EYFP by restriction enzyme digestion. To generate pAAV-G88P3-HA-hM3Dq, promoter G88P3 was subcloned into pAAV-hSyn-HA-hM3Dq-IRES-mCitrine (Addgene, 50463) via the EcoRI/BamHI restriction sites to replace the hSyn promoter and IRES-mCitrine was removed afterwards by restriction enzyme digestion. To generate pAAV-G88P3-HA-hM3Dq-2A-EYFP, a 2A-EYFP fragment was subcloned into pAAV-G88P3-HA-hM3Dq after hM3Dq. […]
Images were acquired using a confocal microscope (Carl Zeiss, LSM880) and an Axiolmager.Z1 microscope with apotome (Carl Zeiss). […] Every sixth section was analyzed, and numbers of EYFP+ cells were multiplied by six to acquire the approximate total number and mean number of cells per animal. […]

| Molecule | Activity Level SN (substantia nigra (SN)) | labeled MSNs, reporter expression driven by promoter (FIG. 4B) [1] | Activity Level STR [1] |
| --- | --- | --- | --- |
| B1 | + (<5 k) | 39460±7281 | ++++ (>25 k) |
| B2 | + (<5 k) | 37026±6646 | ++++ (>25 k) |
